Laboratory results published in US20220135701A1 (Genentech, published 2022).

Columns and labels:
MuMER (E23-S496) = target: T1, MuMER (E23-S496) (mouse, UniProt Q60805 23-496); assay: SPR BIAcore T200, Ab captured, 25C
T1 construct: range 23-496; also called mouse MerTK extracellular domain
T1 sequence (looked up): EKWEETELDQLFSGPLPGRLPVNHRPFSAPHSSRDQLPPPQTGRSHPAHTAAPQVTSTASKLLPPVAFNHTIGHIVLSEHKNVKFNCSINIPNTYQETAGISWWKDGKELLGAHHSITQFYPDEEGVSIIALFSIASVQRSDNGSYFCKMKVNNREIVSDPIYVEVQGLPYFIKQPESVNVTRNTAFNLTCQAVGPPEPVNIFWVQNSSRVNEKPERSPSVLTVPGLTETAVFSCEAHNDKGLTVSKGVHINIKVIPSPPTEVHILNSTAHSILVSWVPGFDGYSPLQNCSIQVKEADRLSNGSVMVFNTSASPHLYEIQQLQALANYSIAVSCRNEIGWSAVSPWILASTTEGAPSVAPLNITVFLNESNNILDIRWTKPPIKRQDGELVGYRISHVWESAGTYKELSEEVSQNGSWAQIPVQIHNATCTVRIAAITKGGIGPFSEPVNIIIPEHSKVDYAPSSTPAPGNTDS
Protocol: (§1) Binding affinity determinations were obtained using Surface Plasmon Resonance (SRP) measurements from a BIAcore™-T200 instrument. Briefly, each rabbit antibody was captured to achieve approximately 100 RU (Response Units). Then, 3-fold serial dilutions of the various MerTK domains (0.4 nM to 100 nM) diluted in HBS-EP buffer (0.01M HEPES pH 7.4, 0.15M NaCl, 3 mM EDTA and 0.05% v/v surfactant P20) was injected into the BIAcore™-T200 instrument at 25° C. or 37° C. with a flow rate of 30 μl/min. Association rates (kₒₙ) and dissociation rates (koff) were calculated using a simple one-to-one Langmuir binding model (BIAcore T200 evaluation software version 2.0). The equilibrium dissociation constant (KD) was calculated as the ratio koff/kₒₙ.
(§2) Antibody epitope determination was assessed by BIAcore analysis for rabbit antibodies binding against both the human and mouse MerTK extracellular domain (HuMER R26-A499 and MuMER E23-S496), Ig1&2 domain, Ig1-only domain, and Ig2-only domain (TABLE 18). Human MerTK and its domains are shown in light gray, while mouse MerTK and its domains are shown in dark gray.

HuMER (R26-A499) = target: T2, HuMER (R26-A499) (human, UniProt Q12866 26-499); assay: SPR BIAcore T200, Ab captured, 25C
T2 construct: Extracellular domain with both Ig-like and both fibronectin-like domains; also called human MerTK extracellular domain
T2 sequence: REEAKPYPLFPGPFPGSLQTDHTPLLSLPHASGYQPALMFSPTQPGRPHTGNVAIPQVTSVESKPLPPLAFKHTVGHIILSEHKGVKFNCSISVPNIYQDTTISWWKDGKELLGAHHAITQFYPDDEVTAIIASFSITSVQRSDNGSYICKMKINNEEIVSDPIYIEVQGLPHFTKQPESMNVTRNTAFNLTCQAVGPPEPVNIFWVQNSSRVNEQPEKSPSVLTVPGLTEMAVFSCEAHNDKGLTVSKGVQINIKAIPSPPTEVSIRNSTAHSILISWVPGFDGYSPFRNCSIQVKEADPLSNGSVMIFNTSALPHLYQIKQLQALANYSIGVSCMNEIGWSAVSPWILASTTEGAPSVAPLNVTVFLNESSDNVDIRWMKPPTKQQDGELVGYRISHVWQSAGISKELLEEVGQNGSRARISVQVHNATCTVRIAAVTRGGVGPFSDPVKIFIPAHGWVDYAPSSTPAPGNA
Protocol: as §1, §2

cynomolgus monkey MerTK = target: T3, cynomolgus monkey MerTK (cynomolgus monkey, UniProt A0A2K5V1H9 32-505); assay: SPR BIAcore T200, Ab captured, 25C
T3 construct: Soluble analyte in SPR; also called Cyno MerTK
T3 sequence: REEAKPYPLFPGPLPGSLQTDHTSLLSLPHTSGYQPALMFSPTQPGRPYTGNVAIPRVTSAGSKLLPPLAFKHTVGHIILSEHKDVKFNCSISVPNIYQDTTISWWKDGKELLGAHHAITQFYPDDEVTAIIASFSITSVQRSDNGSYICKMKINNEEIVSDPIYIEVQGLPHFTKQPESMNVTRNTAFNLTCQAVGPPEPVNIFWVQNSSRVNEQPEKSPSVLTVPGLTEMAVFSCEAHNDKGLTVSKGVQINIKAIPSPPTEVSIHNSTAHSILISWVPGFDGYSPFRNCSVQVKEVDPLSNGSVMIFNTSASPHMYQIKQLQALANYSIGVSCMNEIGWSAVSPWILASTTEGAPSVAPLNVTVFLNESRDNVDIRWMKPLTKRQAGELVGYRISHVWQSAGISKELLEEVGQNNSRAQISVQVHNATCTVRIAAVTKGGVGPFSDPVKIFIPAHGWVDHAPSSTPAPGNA
Protocol: as §1, with “All binding affinity” for “Binding affinity”, “Resonance (SPR)” for “Resonance (SRP)”, “rabbit or humanized” for “rabbit”, “of MerTK from” for “of the”, “various species” for “various MerTK domains”

mouse MerTK = target: T4, mouse MerTK (mouse, UniProt Q60805 23-496); assay: SPR BIAcore T200, Ab captured, 25C
T4 construct: also called MuMER
T4 sequence (looked up): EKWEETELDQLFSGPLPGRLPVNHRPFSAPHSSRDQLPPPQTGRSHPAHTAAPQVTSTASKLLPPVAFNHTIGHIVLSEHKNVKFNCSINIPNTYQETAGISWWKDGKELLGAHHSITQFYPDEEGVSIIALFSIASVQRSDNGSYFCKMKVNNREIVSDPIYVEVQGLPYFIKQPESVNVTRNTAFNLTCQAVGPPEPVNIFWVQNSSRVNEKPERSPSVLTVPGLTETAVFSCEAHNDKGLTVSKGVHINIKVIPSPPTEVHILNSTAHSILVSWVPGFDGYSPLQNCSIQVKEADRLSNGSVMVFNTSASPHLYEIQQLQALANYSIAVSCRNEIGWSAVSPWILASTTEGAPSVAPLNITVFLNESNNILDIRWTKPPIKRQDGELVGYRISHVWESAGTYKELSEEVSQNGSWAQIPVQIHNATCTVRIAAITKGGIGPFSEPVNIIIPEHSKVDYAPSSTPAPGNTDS
Protocol: as §1, with “All binding affinity” for “Binding affinity”, “Resonance (SPR)” for “Resonance (SRP)”, “rabbit or humanized” for “rabbit”, “of MerTK from” for “of the”, “various species” for “various MerTK domains”

human MerTK [1] = target: T5, human MerTK (human, UniProt Q12866 26-499); assay: SPR BIAcore T200, Ab captured, 25C
T5 construct: also called HuMER
T5 sequence: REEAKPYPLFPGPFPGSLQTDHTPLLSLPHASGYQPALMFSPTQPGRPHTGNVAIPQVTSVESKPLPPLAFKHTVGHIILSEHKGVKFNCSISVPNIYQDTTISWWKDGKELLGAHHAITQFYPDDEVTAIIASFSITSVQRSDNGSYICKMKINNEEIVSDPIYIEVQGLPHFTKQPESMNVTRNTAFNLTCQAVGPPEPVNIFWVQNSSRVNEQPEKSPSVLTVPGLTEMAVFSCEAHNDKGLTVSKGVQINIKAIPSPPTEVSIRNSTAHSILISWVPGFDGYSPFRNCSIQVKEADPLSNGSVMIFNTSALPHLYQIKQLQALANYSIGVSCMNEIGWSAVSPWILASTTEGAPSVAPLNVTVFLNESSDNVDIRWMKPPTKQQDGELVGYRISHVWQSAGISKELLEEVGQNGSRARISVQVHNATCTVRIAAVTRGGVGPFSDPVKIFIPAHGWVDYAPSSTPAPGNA
Protocol: as §1, with “All binding affinity” for “Binding affinity”, “Resonance (SPR)” for “Resonance (SRP)”, “rabbit or humanized” for “rabbit”, “of MerTK from” for “of the”, “various species” for “various MerTK domains”

human MerTK [2] = target: T5, human MerTK; assay: SPR BIAcore T200, Ab captured, 37C
Protocol: as §1, with “Each humanized mutation variant was subject to BIAcore analysis to determine the important rabbit residues for binding and stability. Binding” for “Binding”, “humanized mutation variant” for “rabbit”, “human” for “the various”, “MerTK” for “MerTK domains”, “at” for “at 25° C. or”

B1: Rbt22C4 (antibody, V domains shown)
VH: QSVEESGGRLVTPGTPLTLTCTVSGFSLSTYSMSWVRQAPGKGLEWLGIVSVAIDPVYATWARGRFTISRTSTTVNLKITSPTTEDTATYFCVRVAFSTNGIPHRLDLWGQGTLVTVSS
VL: AQVLTQTASSVSAAVGGTVTISCQSSPSVYNHNWLSWYQQKPGQPPKLLIYEASKLASGVPSRFSGSGSGTQFTLTISDVQCDEAATYYCAGGFSSGSDSFAFGGGTEVVVT
notes: Recombinant rabbit monoclonal antibody, Expi293, protein A purified
- Kd (MuMER (E23-S496)): 2.2 nM
- Kd (HuMER (R26-A499)): 94 nM
- Kd (cynomolgus monkey MerTK): 82.2 nM
- Kd (mouse MerTK): 2.2 nM
- Kd (human MerTK [1]): 94 nM

B2: Rbt8F4 (antibody, V domains shown)
VH: QSVQESGGRLVTPGTPLTLTCTVSGFSLINYPMSWVRQAPGKGLEWIGVISSTGGTNYASWAKGRFTISKTSTTVDLKITSPTTEDTATYFCARVDFLVYLGGAYIIWGLDLWGQGTLVTVSS
VL: AAVLTQTPSPVSAAVGGTVTINCQSSPNIYSNYLSWFQQKPGQPPKILIYGASTLASGVPSRFKGSGSGTQFTLTISDVQCDDAATYYCAGGYSDSSEAYAFGGGTEVVVK
notes: as for B1
- Kd (MuMER (E23-S496)): 2.3 nM
- Kd (HuMER (R26-A499)): 44 nM
- Kd (cynomolgus monkey MerTK): 14.7 nM
- Kd (mouse MerTK): 2.3 nM
- Kd (human MerTK [1]): 44 nM

B3: h9E3.FN.V1 HC V24A (antibody, human IgG1, name in Kabat numbering, V domains shown)
VH: EQQLVESGGGLIQPGGSLRLSCAASGFSLSSNAMSWVRQAPGKGLEWIGIISSSGSTYSASWAKGRFTISKDSSKNTMYLQMNSLRAEDTAVYFCARVGFFVGYGAYDYGIIHRLDLWGQGTLVTVSS
VL: DAQLTQSPSTLSASVGDRVTITCQSSKSIYNNNWLSWYQQKPGKPPKLLIYDASDLASGVPSRFSGSGSGTEFTLTISSLQPDDFATYYCAGGYSGDSDYAFGGGTKVEIK
notes: Framework variant of h9E3.FN.v1 (human IgG1)
- Kd (human MerTK [2]): 8.7 nM

B4: h9E3.FN.V1 LC P43A (antibody, name in Kabat numbering, V domains shown)
VH: EQQLVESGGGLIQPGGSLRLSCAVSGFSLSSNAMSWVRQAPGKGLEWIGIISSSGSTYSASWAKGRFTISKDSSKNTMYLQMNSLRAEDTAVYFCARVGFFVGYGAYDYGIIHRLDLWGQGTLVTVSS
VL: DAQLTQSPSTLSASVGDRVTITCQSSKSIYNNNWLSWYQQKPGKAPKLLIYDASDLASGVPSRFSGSGSGTEFTLTISSLQPDDFATYYCAGGYSGDSDYAFGGGTKVEIK
notes: as for B3
- Kd (human MerTK [2]): 15 nM

B5: h9E3.FN.V1 LC L4M (antibody, human IgG1, name in Kabat numbering, V domains shown)
VH: EQQLVESGGGLIQPGGSLRLSCAVSGFSLSSNAMSWVRQAPGKGLEWIGIISSSGSTYSASWAKGRFTISKDSSKNTMYLQMNSLRAEDTAVYFCARVGFFVGYGAYDYGIIHRLDLWGQGTLVTVSS
VL: DAQMTQSPSTLSASVGDRVTITCQSSKSIYNNNWLSWYQQKPGKPPKLLIYDASDLASGVPSRFSGSGSGTEFTLTISSLQPDDFATYYCAGGYSGDSDYAFGGGTKVEIK
notes: as for B3
- Kd (human MerTK [2]): 7.5 nM

B6: h9E3.FN.V1 LC A2I (antibody, human IgG1, name in Kabat numbering, V domains shown)
VH: EQQLVESGGGLIQPGGSLRLSCAVSGFSLSSNAMSWVRQAPGKGLEWIGIISSSGSTYSASWAKGRFTISKDSSKNTMYLQMNSLRAEDTAVYFCARVGFFVGYGAYDYGIIHRLDLWGQGTLVTVSS
VL: DIQLTQSPSTLSASVGDRVTITCQSSKSIYNNNWLSWYQQKPGKPPKLLIYDASDLASGVPSRFSGSGSGTEFTLTISSLQPDDFATYYCAGGYSGDSDYAFGGGTKVEIK
notes: as for B3
- Kd (human MerTK [2]): 10.7 nM

B7: Rbt13D8 (antibody, V domains shown)
VH: QSLEESGGRLVTPGTPLTLTCTVSGFSFSSYSMGWVRQAPGKGPEYIGVISASGTTYYASWVNGRFTISKTSTTMDLKMTSPTAADTATYFCARAAFTAYNRGSCVIHRLDLWGQGTLVTVSS
VL: AQVLTQTASSVSAAVGGTVTINCQASQSVYDSKWLAWYQQKPGQPPKLLIYSASTLASGVPSRFKGSGSGTQFTLTISDLECDDAATYYCAGAYTDNIVFGGGTEVVVK
notes: as for B1
- Kd (MuMER (E23-S496)): 1.2 nM
- Kd (HuMER (R26-A499)): 4.3 nM
- Kd (cynomolgus monkey MerTK): 3.8 nM
- Kd (mouse MerTK): 1.2 nM
- Kd (human MerTK [1]): 4.3 nM
